The values below are quoted from earlier work in PMC10611464.

The target in data set [1] is PACAP (Homo sapiens) (UniProt P18509).
Data set [2] has the same target. This is another data set of the same source.
For data set [3], the target named is VIP (Homo sapiens) (UniProt P01282).
Data set [4] shares this target. This is another data set of the same source.
Data set [5] has as its target PACAP (Homo sapiens) (UniProt P18509). The source holds these as a separate data set.

Read-outs that look alike come from different tables or passages of the source.

UniProt P18509, sequence (P18509 82-129): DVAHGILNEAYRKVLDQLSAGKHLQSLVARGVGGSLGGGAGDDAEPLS
UniProt P01282, sequence (P01282 125-152): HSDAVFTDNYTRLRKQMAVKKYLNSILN

In the case of PAC1 (from UniProt P41586), in the data set with PACAP (Homo sapiens) [1], the dissociation constant Kd (commonly the concentration at which binding is half-saturated) is 0.5 nM. Consider VPAC1 (from UniProt P32241), for which the Kd with PACAP (Homo sapiens) [2] and with VIP (Homo sapiens) [3] was 1 nM in each case. Consider VPAC2 (from UniProt P41587), for which the Kd in the data set with VIP (Homo sapiens) [4] and in the data set with PACAP (Homo sapiens) [5] was 1 nM each time.
